Drawing on PMC6386705, this text covers Kd and stoichiometry N for 1 molecule.

The target in assay [1] is HuR RRM3 (residues 241 to 326) (human), Q15717. Description: ITC. Conditions: remark: other sources report otherwise.
For assay [2] the target is unchanged. The assay can be described thus: NMR 15N relaxation. Conditions: remark: other sources report otherwise.

B1: HuR RRM3 (residues 241 to 326), Q15717 241-326 (domain or fragment)
chain: SSGWCIFIYNLGQDADEGILWQMFGPFGAVTNVKVIRDFNTNKCKGFGFVTMTNYEEAAMAIASLNGYRLGDKILQVSFKTNKSHK
As to B1, in assay [1], the Kd (commonly the equilibrium constant for the complex coming apart) amounted to 31.7 µM. Further, the stoichiometry N (as a rule, the number of molecules, sites or subunits per partner or assembly) in assay [2] came out at 2.
